Measurements: patent US20200277405A1, “COMPOSITION FOR ANTIBODY-DRUG CONJUGATE DIRECTED AGAINST TUMOR-CELL ASSOCIATED POLYSIALIC ACID” (Cornell University, priority 2019, published 2020)

Key:
polysialylated NCAM = test: SPR (Biacore) equilibrium binding to NCAM; design: species or system chicken; details: antibody on Protein A sensor chip; NCAM 0.25-250 nM; Hill slope analysis in Prism
Procedure: FIGS. 5A-5D depict binding affinity analysis of mo735 and ch735 antibodies. Binding kinetics for the mo735 and ch735 antibodies were monitored using Biacore. Commercial mo735 or recombinant purified ch735 was immobilized at low concentrations on a Biacore Protein A sensor chip and the response to different concentrations of NCAM (ranging from 0.25-250 nM) was compared with an empty flow cell. FIGS. 5A-5B depicts representative sensorgram data for mo735 (FIG. 5A) and ch735 (FIG. 5B).
Equilibrium binding-affinity measurements were made by SPR analysis on a Biacore 3000 system. Antibodies mo735 and ch735 were bound to the surface of a Protein A sensor chip with a target level of 1700 response units (RUs). Serial dilutions of the antigen, chicken NCAM, prepared in 10 mM HEPES, pH 7.4, 150 mM NaCl, 3 mM EDTA, 0.005% polysorbate-20 (HBS-EP buffer, GE Healthcare) at concentrations ranging from 0.25 to 250 nM were injected over the chip using the same buffer at a flow rate of 20 μl/min (10 min injection time, 2 min stabilization time, 20 min dissociation). The surface of the chip was regenerated between the injections of each serial dilution with 10 mM glycine, pH 1.5 (30 sec injection time, 3 min stabilization time). Kinetic parameters were determined by fitting the maximum response values for each concentration using the Hill slope non-linear regression analysis in Prism software.

[1] = system: chicken brain-derived polysialylated neural cell adhesion molecule (NCAM); test: ELISA with immobilized NCAM; type: binding
Procedure: (§1) FIGS. 2A-2D depict binding specificity and affinity of the ch735 antibody. […] ELISA signals (Abs370) were obtained with anti-human IgG secondary antibodies. […] Antibodies were assayed at 1 μg/mL and detected with anti-human IgG secondary antibodies. […] Antibodies were assayed at 10 μg/mL and detected with anti-mouse IgG secondary antibodies.
as §1, with “3A-3D” for “2A-2D”, “mo735” for “the ch735”, “anti-mouse” for “anti-human”
Costar 96-well ELISA plates (Corning) were coated overnight at 4° C. with 50 μl of 1 μg/mL chicken brain NCAM (Millipore) or endoN-treated NCAM in PBS. Chicken NCAM (Millipore, AG265) was digested with 1.5 μg of endoN per 50 μg of NCAM overnight at 37° C. After blocking with 5% (w/v) milk in PBS for 1-3 h at room temperature or overnight at 4° C., ELISA plates were washed three times with wash buffer (PBST with 0.3% BSA) and incubated with serially diluted purified ch735, mo735 (Absolute Antibody), or ab5032 (Millipore) for 1 h at room temperature. Antibody samples were quantified with a Nanodrop. […]

[2] = CFG glycan microarray specificity profiling; type: binding; details: for glycan specificity from microarrays: CFG glycan array (v5.3 mo735, v5.4 ch735) and glycoprotein array
Procedure: as §1
as §1, with “3A-3D” for “2A-2D”, “mo735” for “the ch735”, “anti-mouse” for “anti-human”
Specificity of mo735 and ch735 was determined using printed glycan arrays 5.3 and 5.4 at the CFG. Both antibodies were analyzed at 10 μg/mL with 5 μg/mL of anti-mouse or anti-human Alexa-Fluor 647 (AF647)-conjugated secondary, respectively. Specificity of mo735 (1 μg/mL) and ch735 (10 μg/mL) was also assessed on a custom glycoprotein array that contained ˜40-50 glycoproteins including chicken brain NCAM and endoN-treated chicken brain NCAM.

[3] = system: polySia expressed on the surface of different cancer cell lines; test: Flow cytometric analysis of antibody binding to cancer cell lines; type: cell-based, human
From the text: FIGS. 6A-6D depict immunostaining of antibody ch735 to polySia-expressing cancer cells. […] Data are the geometric mean fluorescence intensity (MFI), with the values reported as the average of three replicates and the error represented as the standard deviation of the mean. […] Cells were stained with ch735, wheat germ agglutinin (WGA) to stain the cell membrane, and Hoescht to stain nuclei. Scale bars, 10 μm. […] Scale bars, 200 μm.
FIGS. 7A-7B depict binding of antibody ch735 and mo735 to polySia-expressing cancer cells. Representative fluorescence histograms for ch735 (FIG. 7A) and mo735 (FIG. 7B) binding to a panel of cancer cell lines measured by flow cytometry are shown. Histograms represent antibody binding to untreated cells, antibody binding to endoN-treated cells, and anti-human or anti-mouse secondary only control, respectively.
FIGS. 9A-9B depict binding of antibody mo735 to polySia-expressing cancer cells. […] Data are the geometric mean fluorescence intensity (MFI), with the values reported as the average of three replicates and the error represented as the standard deviation of the mean. […] Cells were stained with ch735, wheat germ agglutinin (WGA), and nuclei were stained with Hoescht. Scale bars, 10 μm.
Cancer cells were trypsinized and collected with media, followed by three washes in PBS. To remove polySia, cells were treated with endoN at 3 μg/mL in PBS for 1 h at room temperature. The cells are resuspended in 4% paraformaldehyde (PFA), fixed at room temperature with constant agitation for 10 min, and then washed two times with PBS, and two times with 0.5% BSA in PBS. The cells were collected and resuspended to 1 million cells/100 μL and pipetted into a round bottom 96-well plate. The cells were pelleted in the 96-well plate and resuspended in 0.5% BSA in PBS containing mo735 or ch735 (5 μg/mL) and incubated for 30 min at room temperature with constant agitation. Cells were washed three times with 0.5% BSA in PBS and resuspended in anti-mouse IgG-Alexa-Fluor 488 (AF488) secondary or anti-human IgG-AF488 secondary (ThermoFisher Scientific) at a 1:200 dilution for 30 min at room temperature in the dark with constant agitation. Cells were washed three times, resuspended in 500 μL of 0.5% BSA in PBS, and analyzed on a BD FACSCalibur flow cytometer using Cell Quest Pro software (BD Biosciences).

[4] = biological target: embryonic brain glycopeptides; details: against embryonic brain glycopeptides (Hayrinen et al.); read-out: previously reported Kd; cited from earlier work
[5] = CFG microarray version 5.4, 10 μg/mL

Kd (polysialylated NCAM) [nM]	glycan array binding to glycans #225 and 226 [2, 5]	glycan array binding to tetra-sialic acid glycan Chart ID #223 [2, 5]	Molecule	ELISA binding to NCAM [1]	glycan specificity from microarrays [2]	polySia binding on panel of cell lines compared with ch735 ([3]; staining of each of the cell lines)	Kd [4] [nM]	glycan array binding to glycan Chart ID #224 [2, 5]	surface binding by flow cytometry ([3]; A549 and MCF7 cells)	surface binding by flow cytometry ([3]; NCI-H69, NCI-H82 and SH-SY5Y cells)	surface binding by flow cytometry ([3]; SKOV3 and K562 cells)	surface binding by flow cytometry ([3]; SW2 cells)	surface binding following endoN treatment ([3]; polySia-positive cell lines, endoN-treated)
10.2			mo735: well-known mouse-derived IgG2a monoclonal antibody 735 targeting polysialic acid (antibody, V domains shown) VH: QIQLQQSGPELVRPGASVKISCKASGYTFTDYYIHWVKQRPGEGLEWIGWIYPGSGNTKYNEKFKGKATLTVDTSSSTAYMQLSSLTSEDSAVYFCARGGKFAMDYWGQGTSVTVSS VL: DVVMTQTPLSLPVSLGDQASISCRSSQSLVHSNGNTYLYWYLQKPGQSPKPLIYRVSNRFSGVPDRFSGSGSGTDFTLKISRVEAEDLGVYFCFQGTHVPYTFGGGTRLEIK	specifically recognize polySia	Nearly identical results	Identical polySia binding results	~5						
4.79	not	strong preference	ch735: chimeric human IgG1 polySia-specific mAb made by swapping variable regions of mouse mAb 735 (antibody, V domains shown) VH: QIQLQQSGPELVRPGASVKISCKASGYTFTDYYIHWVKQRPGEGLEWIGWIYPGSGNTKYNEKFKGKATLTVDTSSSTAYMQLSSLTSEDSAVYFCARGGKFAMDYWGQGTSVTVSS VL: DVVMTQTPLSLPVSLGDQASISCRSSQSLVHSNGNTYLYWYLQKPGQSPKPLIYRVSNRFSGVPDRFSGSGSGTDFTLKISRVEAEDLGVYFCFQGTHVPYTFGGGTRLEIK	specifically recognize polySia	α2,8-linked sialic acid with a degree of polymerization (DP) of three or greater			lesser but still significant level of binding above background	No significant binding above background	lower intensity	not recognized	bound most avidly	lack of surface binding
